From publication PMC10127577 (2023)

Molecular target: T1, CDTb protoxin (proCDTb), CDTb residues 43 to 876 (Clostridioides difficile, UniProt O32739 43-876)
T1 chain: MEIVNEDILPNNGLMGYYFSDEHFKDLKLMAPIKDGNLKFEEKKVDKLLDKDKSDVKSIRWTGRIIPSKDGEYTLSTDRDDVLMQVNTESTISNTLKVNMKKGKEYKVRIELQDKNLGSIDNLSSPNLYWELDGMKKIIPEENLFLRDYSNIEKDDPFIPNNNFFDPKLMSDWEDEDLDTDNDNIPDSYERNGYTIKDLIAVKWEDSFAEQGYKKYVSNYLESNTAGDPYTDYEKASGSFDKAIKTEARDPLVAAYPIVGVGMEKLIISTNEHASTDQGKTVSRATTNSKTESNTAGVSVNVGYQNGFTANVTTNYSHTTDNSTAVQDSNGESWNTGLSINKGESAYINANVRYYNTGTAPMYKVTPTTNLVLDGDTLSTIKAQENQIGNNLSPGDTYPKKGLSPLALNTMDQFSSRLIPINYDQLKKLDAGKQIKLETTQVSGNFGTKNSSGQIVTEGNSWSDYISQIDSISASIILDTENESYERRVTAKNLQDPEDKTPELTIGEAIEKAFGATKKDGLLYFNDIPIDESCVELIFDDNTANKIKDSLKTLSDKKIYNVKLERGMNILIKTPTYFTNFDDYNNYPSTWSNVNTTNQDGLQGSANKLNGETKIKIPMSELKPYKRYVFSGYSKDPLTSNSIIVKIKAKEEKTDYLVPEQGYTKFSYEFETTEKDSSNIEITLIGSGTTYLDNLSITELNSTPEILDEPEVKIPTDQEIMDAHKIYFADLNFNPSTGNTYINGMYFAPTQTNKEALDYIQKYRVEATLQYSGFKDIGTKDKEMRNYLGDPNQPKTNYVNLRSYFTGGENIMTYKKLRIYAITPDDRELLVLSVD
Assay: SPR

B1: BINTOXB/9 Fab (Fab, V domains shown)
VH: QVQLQQSGAELARPGASVKMSCKASGYTFTSYTMHWVKQRPGQGLEWIGYINPSNDYTSYNQKFKDKATLTADKSSSTAYMQLSSLTSEDSAVYYCARCWGYDPYYFDYWGQGTTLTVSS
VL: DIVMSQSPSLLAVSAGEKVTMSCKSSQSLLNSRTRKNYLAWYQQKPGQSPKVLIYWASTRESGVPDRFTGSGSGTDFTLTISSVQAEDLAVYYCKQSYNLLTFGAGTKLELK
koff: 0.000227 s⁻¹

B2: BINTOXB/22 Fab (Fab, V domains shown)
VH: QIQLVQSGPELKKPGETVKISCKASGYTFTNYGMNWVKQAPGKDLKWMGWMSTYTGEPTYADDFKGRFAFSLETSASTAYLQINNLKNEDMATYFCARRGNYLSFDYWGQGTTLTVSS
VL: DIVMTQSHKFMSTSVGDRVSITCKASQDVSTAVGWYQQKPGQSPKLLIYSASYRYTGVPDRFTGSGSGTDFTFTISSVQAEDLAVYYCQQHYSPPFTFGSGTELEIK
koff: 0.00299 s⁻¹
